Test results reported in patent publication US20250215104A1.

Target: cell surface human uPAR (huPAR) (human) (UniProt Q03405)
Experiment: cell-based or functional assay

Chain of cell surface human uPAR (huPAR) (human) (Q03405 23-305): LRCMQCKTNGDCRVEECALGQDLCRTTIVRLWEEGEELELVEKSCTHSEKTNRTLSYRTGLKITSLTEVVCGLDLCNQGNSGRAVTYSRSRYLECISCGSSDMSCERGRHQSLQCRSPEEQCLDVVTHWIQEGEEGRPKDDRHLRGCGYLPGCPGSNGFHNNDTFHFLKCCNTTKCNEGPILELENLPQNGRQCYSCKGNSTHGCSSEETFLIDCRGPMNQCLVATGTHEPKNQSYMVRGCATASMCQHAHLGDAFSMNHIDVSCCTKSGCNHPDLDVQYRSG

hIgG control antibody
cellular endocytosis: mean cellular fluorescent signal (FITC-conjugated antibody, 10 µg/mL, 1 hr, undifferentiated human podocytes): 100 RFU
